Experimental data reported in publication PMC10628450.

Assays:
FcRn-His6 [1] = biological target: FcRn-His6 (UniProt P55899); assay: BLI; pH 6; details: bispecific antibody
FcRn-His6 [2] = biological target: FcRn-His6 (UniProt P55899); assay: BLI; details: bispecific antibody
[3] = biological target: Anti-NKp46_AB_F06 (human); assay: BLI; antibodies loaded at 5 µg/ml on anti-human-Fc (AHC) or anti-human-CH1 (FAB2G) biosensors; antigen in solution (EGFR 3.125-200 nM; NKp46 and NKp30 1.6-100 nM) in kinetics buffer (PBS, 0.1% Tween-20, 1% BSA); 25°C; 1:1 binding model
[4] = biological target: Anti-NKp46_AB_H05 (human); assay: as above
Sequence of Anti-NKp46_AB_H05 (human) (heavy, as listed by the source, chain 1 of 2): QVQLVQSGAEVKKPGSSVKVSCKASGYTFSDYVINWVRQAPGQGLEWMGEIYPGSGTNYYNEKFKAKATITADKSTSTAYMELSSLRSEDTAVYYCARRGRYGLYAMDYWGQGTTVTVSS
Sequence of Anti-NKp46_AB_H05 (human) (light, as listed by the source, chain 2 of 2): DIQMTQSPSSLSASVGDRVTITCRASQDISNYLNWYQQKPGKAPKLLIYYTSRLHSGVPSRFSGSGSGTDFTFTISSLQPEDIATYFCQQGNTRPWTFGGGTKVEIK

Sequence of Anti-NKp46_AB_F06 (human) (heavy, as listed by the source, chain 1 of 2): as the sequence (heavy, as listed by the source, chain 1 of 2) above
Sequence of Anti-NKp46_AB_F06 (human) (light, as listed by the source, chain 2 of 2): as the sequence (light, as listed by the source, chain 2 of 2) above

Kd (FcRn-His6 [1]) [µM] | koff (FcRn-His6 [1]) [s⁻¹] | Kd (FcRn-His6 [2]) [µM] | Kd [3] [µM] | Kd [4] [µM] | Substance
0.407 | 0.0576 |  |  |  | Anti-NKp46_AB_F06 (from UniProt P01857)
0.399 | 0.076 |  |  |  | Anti-NKp46_AB_H05 (from UniProt P01857)
 | 0.0736 | 0.477 |  |  | Anti-NKp46_EF_F06 (from UniProt P01857)
0.392 | 0.0852 |  |  |  | Anti-NKp46_EF_H05 (from UniProt P01857)
 |  |  | 0.0294 | 0.0377 | human EGFR ECD-His6 (from UniProt P00533 25-645) (receptor)
